{"source": "patent US20150268247A1", "about": "(UNIVERSITY OF ROCHESTER, published 2015)", "binders": {"B1": {"name": "Cul5(N), human Cullin5 residues 2-384 with V341R and L345D mutations (post 3C cleavage) (other)", "chain": "GPMHMGGSTSNLLKNKGSLQFEDKWDFMRPIVLKLLRQESVTKQQWFDLFSDVHAVCLWDDKGPAKIHQALKEDILEFIKQAQARVLSHQDDTALLKAYIVEWRKFFTQCDILPKPFCQLEITLMGKQGSNKKSNVEDSIVRKLMLDTWNESIFSNIKNRLQDSAMKLVHAERLGEAFDSQLVIGVRESYVNLCSNPEDKLQIYRDNFEKAYLDSTERFYRTQAPSYLQQNGVQNYMKYADAKLKEEEKRALRYLETRRECNSVEALMECCVNALVTSFKETILAECQGMIKRNETEKLHLMFSLMDKVPNGIEPMLKDLEEHIISAGLADMVAAAETITTDSEKYREQLDTLFNRFSKLVKEAFQDDPRFLTARDKAYKAVVNDATIFK", "notes": "also called Cul5(2-384)"}, "B2": {"name": "CBFβ alone (human core-binding factor β subunit isoform 2) (other)", "chain": "MGHHHHHHLEVLFQGPPRVVPDQRSKFENEEFFRKLSRECEIKYTGFRDRPHEERQARFQNACRDGRSEIAFVATGTNLSLQFFPASWQGEQRQTPSREYVDLEREAGKVYLKAPMILNGVCVIWKGWIDLQRLDGMGCLEFDEERAQQEDALAQQAFEEARRRTREFEDRDRSHREEMEVRVSQLLAVTGKKTTRP"}}, "key": {"[1]": {"target": "T1, VifC/EloB/C ternary complex (HIV-1 HXB2 Vif(95-192) / ElonginB 1-118 / ElonginC 17-112) (HIV-1 HXB2; human, UniProt P69720 95-192; Q15370 2-118; Q15369 18-112)", "T1 sequence (P69720 95-192, tags left off, chain 1 of 3)": "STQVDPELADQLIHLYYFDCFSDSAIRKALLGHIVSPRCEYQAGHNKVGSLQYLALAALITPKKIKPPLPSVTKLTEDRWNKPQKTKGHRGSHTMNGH", "T1 sequence (Q15370 2-118, tags left off, chain 2 of 3)": "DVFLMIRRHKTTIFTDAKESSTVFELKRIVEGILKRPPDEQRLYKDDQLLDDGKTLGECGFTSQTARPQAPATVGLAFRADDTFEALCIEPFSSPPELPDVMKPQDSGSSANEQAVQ", "T1 sequence (Q15369 18-112, tags left off, chain 3 of 3)": "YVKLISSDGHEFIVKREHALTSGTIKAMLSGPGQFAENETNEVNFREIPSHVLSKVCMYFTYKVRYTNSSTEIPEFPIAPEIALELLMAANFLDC", "experiment": "ITC at 303 K, Cul5(N) in syringe, complex in cell, ITC buffer A"}, "[2]": {"target": "T2, Vif/EloB/C/CBFβ quaternary complex (full-length HIV-1 HXB2 Vif(1-192) / ElonginB 1-118 / ElonginC 17 (HIV-1 HXB2; human, UniProt P69720 2-192; Q15370 2-118; P83940 18-112; Q13951 2-182)", "T2 sequence (P69720 2-192, tags left off, chain 1 of 3)": "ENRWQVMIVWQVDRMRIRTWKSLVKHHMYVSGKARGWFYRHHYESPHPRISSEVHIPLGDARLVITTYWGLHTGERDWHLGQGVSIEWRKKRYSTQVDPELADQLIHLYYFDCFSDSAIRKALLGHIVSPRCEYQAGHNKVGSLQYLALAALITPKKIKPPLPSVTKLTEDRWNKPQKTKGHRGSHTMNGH", "T2 sequence (Q15370 2-118, tags left off, chain 2 of 3)": "as the sequence (Q15370 2-118, tags left off, chain 2 of 3) above", "T2 sequence (P83940 18-112, tags left off, chain 3 of 3)": "as the sequence (Q15369 18-112, tags left off, chain 3 of 3) above", "experiment": "ITC at 303 K, Cul5(N) in syringe, complex in cell, ITC buffer A"}, "[3]": {"target": "B2", "experiment": "ITC at 303.15 K in ITC Buffer A, Cul5(N) titrated to CBFβ alone"}, "[4]": {"target": "T1, VifC/EloB/C ternary complex (HIV-1 HXB2 …)"}, "[5]": {"target": "T1, VifC/EloB/C ternary complex (HIV-1 HXB2 …)", "experiment": "ITC at 30 °C, HEPES (ITC buffer A)"}, "[6]": {"target": "T2, Vif/EloB/C/CBFβ quaternary complex …", "experiment": "ITC at 30 °C, HEPES (ITC buffer A)"}, "[7]": {"target": "T1, VifC/EloB/C ternary complex (HIV-1 HXB2 …)", "remark": "listed apart in the source"}, "[8]": {"target": "T1, VifC/EloB/C ternary complex (HIV-1 HXB2 …)", "remark": "listed apart in the source"}, "[9]": {"target": "T1, VifC/EloB/C ternary complex (HIV-1 HXB2 …)", "remark": "listed apart in the source"}, "[10]": {"target": "T2, Vif/EloB/C/CBFβ quaternary complex …"}, "[11]": {"target": "T2, Vif/EloB/C/CBFβ quaternary complex …", "remark": "listed apart in the source"}, "[12]": {"target": "T2, Vif/EloB/C/CBFβ quaternary complex …", "remark": "listed apart in the source"}, "[13]": {"target": "T1, VifC/EloB/C ternary complex (HIV-1 HXB2 …)", "experiment": "ITC at 30 °C, difference of ΔH between ITC buffers A and B"}, "[14]": {"target": "T2, Vif/EloB/C/CBFβ quaternary complex …", "experiment": "ITC at 30 °C, difference of ΔH between ITC buffers A and B"}, "[15]": {"target": "T2, Vif/EloB/C/CBFβ quaternary complex …", "remark": "listed apart in the source"}, "[16]": {"target": "T1, VifC/EloB/C ternary complex (HIV-1 HXB2 …)", "remark": "listed apart in the source"}, "[17]": {"target": "T2, Vif/EloB/C/CBFβ quaternary complex …", "remark": "listed apart in the source"}, "[18]": {"target": "T2, Vif/EloB/C/CBFβ quaternary complex …", "remark": "listed apart in the source"}, "[19]": {"target": "T1, VifC/EloB/C ternary complex (HIV-1 HXB2 …)", "experiment": "ITC at 30 °C, phosphate (ITC buffer B)"}, "[20]": {"target": "T2, Vif/EloB/C/CBFβ quaternary complex …", "experiment": "ITC at 30 °C, phosphate (ITC buffer B)"}, "[21]": {"target": "T1, VifC/EloB/C ternary complex (HIV-1 HXB2 …)", "experiment": "ITC at 303.15 K in ITC Buffer A, CBFβ titrated to VifC/EloB/C"}}, "note": "Like-named read-outs stand apart in the source and are kept apart here."}
{"binder": "B1", "values": [{"measurement": "-TΔS", "setting": "[1]", "result": -3.8, "unit": "kcal/mol"}, {"measurement": "Kd", "setting": "[1]", "result": 327, "unit": "nM"}, {"measurement": "ΔG", "setting": "[1]", "result": -9, "unit": "kcal/mol"}, {"measurement": "ΔH", "setting": "[1]", "result": -5.2, "unit": "kcal/mol"}, {"measurement": "-TΔS", "setting": "[2]", "result": -2.8, "unit": "kcal/mol"}, {"measurement": "ΔG", "setting": "[2]", "result": -11.5, "unit": "kcal/mol"}, {"measurement": "ΔH", "setting": "[2]", "result": -8.8, "unit": "kcal/mol"}, {"measurement": "binding result", "setting": "[3]", "result": "no binding"}, {"measurement": "N", "setting": "[4]", "result": 1.03}, {"measurement": "ΔH", "setting": "[4]", "result": -5250}, {"measurement": "ΔS", "setting": "[4]", "result": 12.4}, {"measurement": "ΔH", "setting": "[5]", "result": -5.2, "unit": "kcal/mol"}, {"measurement": "ΔH", "setting": "[6]", "result": -9.2, "unit": "kcal/mol"}, {"measurement": "N", "setting": "[7]", "result": 0.948}, {"measurement": "ΔH", "setting": "[7]", "result": -6430}, {"measurement": "ΔS", "setting": "[7]", "result": 7.96}, {"measurement": "N", "setting": "[8]", "result": 0.887}, {"measurement": "ΔH", "setting": "[8]", "result": -2250}, {"measurement": "ΔS", "setting": "[8]", "result": 22.9}, {"measurement": "N", "setting": "[9]", "result": 0.952}, {"measurement": "ΔH", "setting": "[9]", "result": -3750}, {"measurement": "ΔS", "setting": "[9]", "result": 17.4}, {"measurement": "Kd", "setting": "[10]", "result": 5, "unit": "nM"}, {"measurement": "N", "setting": "[11]", "result": 1.01}, {"measurement": "ΔH", "setting": "[11]", "result": -8350}, {"measurement": "ΔS", "setting": "[11]", "result": 11.2}, {"measurement": "ΔH", "setting": "[12]", "result": -3970}, {"measurement": "ΔS", "setting": "[12]", "result": 21.7}, {"measurement": "ΔΔH (HEPES against phosphate buffer)", "setting": "[13]", "result": 0.8, "unit": "kcal/mol"}, {"measurement": "ΔΔH (HEPES against phosphate buffer)", "setting": "[14]", "result": 1.7, "unit": "kcal/mol"}, {"measurement": "N", "setting": "[15]", "result": 0.943}, {"measurement": "ΔH", "setting": "[15]", "result": -6310}, {"measurement": "ΔS", "setting": "[15]", "result": 23}, {"measurement": "N", "setting": "[16]", "result": 1.03}, {"measurement": "ΔH", "setting": "[16]", "result": -5250}, {"measurement": "ΔS", "setting": "[16]", "result": 12.4}, {"measurement": "N", "setting": "[17]", "result": 1.01}, {"measurement": "ΔH", "setting": "[17]", "result": -8350}, {"measurement": "ΔS", "setting": "[17]", "result": 11.2}, {"measurement": "N", "setting": "[18]", "result": 1}, {"measurement": "ΔH", "setting": "[18]", "result": -10100}, {"measurement": "ΔS", "setting": "[18]", "result": 4.56}, {"measurement": "ΔH", "setting": "[19]", "result": -4.4, "unit": "kcal/mol"}, {"measurement": "ΔH", "setting": "[20]", "result": -7.5, "unit": "kcal/mol"}]}
{"binder": "B2", "values": [{"measurement": "binding result", "setting": "[21]", "result": "no binding"}]}
